Reference: PMC3972249

Substrate: Nc1ncnc2c1ncn2[C@@H]1O[C@H](COP(=O)(O)OP(=O)(O)OP(=O)(O)O)[C@@H](O)[C@H]1O
Assay: KM from ATP titration in ATP:PPi exchange assay
Assay type: biochemical, Homo sapiens

Protein | Km
NEDD8-activating enzyme (NAE), catalytic subunit UBA3 I310N (Homo sapiens; I310N) (protein, recombinant human UBA3 (isoform 1) in NAE complex; with NAEα (APPBP1); NEDD8) ADGEEPEKKRRRIEELLAEKMAVDGGCGDTGDWEGRWNHVKKFLERSGPFTHPDFEPSTESLQFLLDTCKVLVIGAGGLGCELLKNLALSGFRQIHVIDMDTIDVSNLNRQFLFRPKDIGRPKAEVAAEFLNDRVPNCNVVPHFNKIQDFNDTFYRQFHIIVCGLDSIIARRWINGMLISLLNYEDGVLDPSSIVPLIDGGTEGFKGNARVILPGMTACIECTLELYPPQVNFPMCTIASMPRLPEHCIEYVRMLQWPKEQPFGEGVPLDGDDPEHIQWIFQKSLERASQYNIRGVTYRLTQGVVKRINPAVASTNAVIAAVCATEVFKIATSAYIPLNNYLVFNDVDGLYTYTFEAERKENCPACSQLPQNIQFSPSAKLQEVLDYLTNSASLQMKSPAITATLEGKNRTLYLQSVTSIEERTRPNLSKTLKELGLVDGQELAVADVTTPQTVLFKLHFTS | 20 µM
NEDD8-activating enzyme (NAE), catalytic subunit UBA3 (NAEβ) (Homo sapiens) (protein, recombinant human UBA3 (isoform 1) in NAE complex; with NAEα (APPBP1); NEDD8) ADGEEPEKKRRRIEELLAEKMAVDGGCGDTGDWEGRWNHVKKFLERSGPFTHPDFEPSTESLQFLLDTCKVLVIGAGGLGCELLKNLALSGFRQIHVIDMDTIDVSNLNRQFLFRPKDIGRPKAEVAAEFLNDRVPNCNVVPHFNKIQDFNDTFYRQFHIIVCGLDSIIARRWINGMLISLLNYEDGVLDPSSIVPLIDGGTEGFKGNARVILPGMTACIECTLELYPPQVNFPMCTIASMPRLPEHCIEYVRMLQWPKEQPFGEGVPLDGDDPEHIQWIFQKSLERASQYNIRGVTYRLTQGVVKRIIPAVASTNAVIAAVCATEVFKIATSAYIPLNNYLVFNDVDGLYTYTFEAERKENCPACSQLPQNIQFSPSAKLQEVLDYLTNSASLQMKSPAITATLEGKNRTLYLQSVTSIEERTRPNLSKTLKELGLVDGQELAVADVTTPQTVLFKLHFTS | 80 µM
